Data on 7 molecules can be found in patent US20230242658A1 (published 2023).

In assay [1] the target is T1, human PD-L1 on CHO-K1 cells (human, UniProt Q9NZQ7 19-290).
T1 construct: whole, on cells; also called CHO-K1/hPDL1; CHO-K1/hPD-L1
The assay can be described thus: FACS, CHO-K1/hPD-L1 cells. (In flow cytometry, cells or beads pass a laser one at a time.)

In assay [2] the target is T2, human 4-1BB on CHO-K1 cells (human, UniProt Q07011 24-255).
T2 construct: whole, on cells; also called CHO-K1/hu 4-1BB; CHO-K1/hu4-1BB
T2 sequence (Q07011 24-255): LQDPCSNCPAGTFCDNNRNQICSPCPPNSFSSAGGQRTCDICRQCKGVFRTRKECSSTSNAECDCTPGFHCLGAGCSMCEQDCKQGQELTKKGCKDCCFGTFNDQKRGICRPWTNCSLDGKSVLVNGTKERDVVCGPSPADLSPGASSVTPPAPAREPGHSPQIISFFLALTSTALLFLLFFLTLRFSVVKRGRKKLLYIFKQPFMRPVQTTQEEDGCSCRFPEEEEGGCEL
In words: FACS, CHO-K1/hu4-1BB cells. The protocol: The binding abilities of the antibody molecules to a CHO-K1 cell strain highly expressing human 4-1BB (CHO-K1/hu4-1BB, GenScript, M00538) and a CHO-K1 cell strain highly expressing cynomolgus monkey 4-1BB (CHO-K1/cyno4-1BB, GenScript, M00569) were determined by flow cytometry FACS. Specifically, the cells were digested and resuspended in a complete medium, and the cell density was adjusted to 2×10⁶ cells/mL. Then, the cells were seeded in a 96-well V-bottom plate (Corning, #3894) at 100 μL/well (2×10⁵ cells/well) and centrifuged at 4° C. for 5 min, and the supernatant was discarded. Then, the serially diluted antibody molecules were added to the 96-well plate at 100 μL/well, and the mixtures were well mixed. The antibody molecules might serially diluted 3-fold from the highest final concentration 200 nM to obtain a total of 12 concentrations. hIgG1 iso (CrownBio, #C0001) was used as an isotype control. The cells were incubated at 4° C. for 1 h away from light. Then, the cells in each well were rinsed twice with 100 μL of pre-cooled FACS buffer (PBS buffer containing 0.5% BSA) and centrifuged at 500 g at 4° C. for 5 min, and then the supernatant was discarded. […] Then, the cells in each well were then rinsed twice with 200 μL of pre-cooled FACS buffer and centrifuged at 500 g at 4° C. for 5 min, and then the supernatant was discarded. Finally, a pre-cooled FACS buffer was added at 200 μL/well to resuspend the cells. The fluorescence signal values were read using a BD FACS CANTOII flow cytometer.

T1 sequence (Q9NZQ7 19-290): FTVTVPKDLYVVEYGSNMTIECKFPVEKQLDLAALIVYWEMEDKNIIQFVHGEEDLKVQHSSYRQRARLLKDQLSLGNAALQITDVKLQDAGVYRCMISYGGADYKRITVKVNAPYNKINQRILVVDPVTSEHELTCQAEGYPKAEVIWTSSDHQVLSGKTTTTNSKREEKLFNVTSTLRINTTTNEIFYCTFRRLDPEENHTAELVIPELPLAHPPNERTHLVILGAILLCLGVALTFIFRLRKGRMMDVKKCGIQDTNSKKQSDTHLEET

B1: PR004270 (bispecific antibody, human IgG1)
chain 1: EVQLVESGGGLVQPGGSLRLSCAASGFTFSSYWMSWVRQAPGKGLEWVANIKQEGSEKYYVDSVKGRFTISRDNAKNSLYLQMNSLRAEDTAVYYCARDRAVAGAFDIWGQGTMVTVSSASTKGPSVFPLAPSSKSTSGGTAALGCLVKDYFPEPVTVSWNSGALTSGVHTFPAVLQSSGLYSLSSVVTVPSSSLGTQTYICNVNHKPSNTKVDKKVEPKSC
chain 2: not shown
notes: PD-L1x4-1BB Fab-HCAb symmetric structure: Fab of PR000265, VH of PR001760, human IgG1 (L234A, L235A)
As for B1, the binding result in assay [1] was “binds”.

B2: PR003549 (bispecific antibody, human IgG1, kappa, L234A L235A)
light: DIQMTQSPSTLSASVGDRVTVTCRASQSIYIWLAWYQQKPGKAPNLLIYKASSLETGVPSRFSGSGSGTEFTLTISSLQPDDFATYYCQQYYGSSRTFGQGTKVEIKRTVAAPSVFIFPPSDEQLKSGTASVVCLLNNFYPREAKVQWKVDNALQSGNSQESVTEQDSKDSTYSLSSTLTLSKADYEKHKVYACEVTHQGLSSPVTKSFNRGEC
heavy: EVQLVESGGGLVQPGGSLRLSCAASGFTFSSYWMSWVRQAPGKGLEWVANIKQEGSEKYYVDSVKGRFTISRDNAKNSLYLQMNSLRAEDTAVYYCARDRAVAGAFDIWGQGTMVTVSSASTKGPSVFPLAPSSKSTSGGTAALGCLVKDYFPEPVTVSWNSGALTSGVHTFPAVLQSSGLYSLSSVVTVPSSSLGTQTYICNVNHKPSNTKVDKKVEPKSCDKTHTCPPCPAPEAAGGPSVFLFPPKPKDTLMISRTPEVTCVVVDVSHEDPEVKFNWYVDGVEVHNAKTKPREEQYNSTYRVVSVLTVLHQDWLNGKEYKCKVSNKALGAPIEKTISKAKGQPREPQVYTLPPSREEMTKNQVSLTCLVKGFYPSDIAVEWESNGQPENNYKTTPPVLDSDGSFFLYSKLTVDKSRWQQGNVFSCSVMHEALHNHYTQKSLSLSPGEPKSSDKTHTPPPPPRTEVQLLESGGGLVQLGGSLRLSCAASGFTFSRYAMTWVRQAPEKGLEWVSSISGSGDDTYYGDSVKGRFTISRDNSQNTVYLQMNSLRAEDTAVYFCAKEKAGTTGDYYYNVDVWGQGTTVTVSS
notes: PD-L1x4-1BB IgG-VH: PR000265 + VH of PR001758 at heavy-chain C-terminus
On to B2, for which the binding result in assay [2] and in assay [1] was “binds” throughout.

B3: PR004268 (bispecific antibody, human IgG1, kappa, L234A L235A)
light: DIQMTQSPSTLSASVGDRVTVTCRASQSIYIWLAWYQQKPGKAPNLLIYKASSLETGVPSRFSGSGSGTEFTLTISSLQPDDFATYYCQQYYGSSRTFGQGTKVEIKRTVAAPSVFIFPPSDEQLKSGTASVVCLLNNFYPREAKVQWKVDNALQSGNSQESVTEQDSKDSTYSLSSTLTLSKADYEKHKVYACEVTHQGLSSPVTKSFNRGEC
heavy: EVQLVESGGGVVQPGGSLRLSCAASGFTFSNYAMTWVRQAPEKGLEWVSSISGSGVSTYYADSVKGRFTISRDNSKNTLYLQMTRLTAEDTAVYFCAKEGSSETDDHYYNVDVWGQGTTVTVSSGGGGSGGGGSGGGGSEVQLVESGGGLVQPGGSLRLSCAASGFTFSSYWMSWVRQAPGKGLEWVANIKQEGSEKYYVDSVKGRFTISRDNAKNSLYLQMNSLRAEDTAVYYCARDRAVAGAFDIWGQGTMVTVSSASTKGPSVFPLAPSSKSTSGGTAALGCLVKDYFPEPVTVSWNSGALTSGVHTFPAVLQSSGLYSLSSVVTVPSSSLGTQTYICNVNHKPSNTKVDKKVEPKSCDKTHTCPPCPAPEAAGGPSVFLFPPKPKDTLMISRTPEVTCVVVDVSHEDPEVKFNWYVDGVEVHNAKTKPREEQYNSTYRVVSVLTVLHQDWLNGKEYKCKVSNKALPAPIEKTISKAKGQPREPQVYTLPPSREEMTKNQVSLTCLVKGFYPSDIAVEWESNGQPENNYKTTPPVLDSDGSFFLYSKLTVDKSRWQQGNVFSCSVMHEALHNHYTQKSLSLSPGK
notes: PD-L1x4-1BB IgG-VH: VH of PR001760 at heavy-chain N-terminus of PR000265, linker GS_15
Take B3: the binding result in assay [1] was “binds”.

B4: PR007130 (bispecific antibody, human IgG1, kappa)
light: DIQMTQSPSTLSASVGDRVTVTCRASQSIYIWLAWYQQKPGKAPNLLIYKASSLETGVPSRFSGSGSGTEFTLTISSLQPDDFATYYCQQYYGSSRTFGQGTKVEIKRTVAAPSVFIFPPSDEQLKSGTASVVCLLNNFYPREAKVQWKVDNALQSGNSQESVTEQDSKDSTYSLSSTLTLSKADYEKHKVYACEVTHQGLSSPVTKSFNRGEC
heavy: EVQLVESGGGLVQPGGSLRLSCAASGFTFSSYWMSWVRQAPGKGLEWVANIKQEGSEKYYVDSVKGRFTISRDNAKNSLYLQMNSLRAEDTAVYYCARDRAVAGAFDIWGQGTMVTVSSASTKGPSVFPLAPSSKSTSGGTAALGCLVKDYFPEPVTVSWNSGALTSGVHTFPAVLQSSGLYSLSSVVTVPSSSLGTQTYICNVNHKPSNTKVDKKVEPKSCDKTHTCPPCPAPEAAGAPSVFLFPPKPKDTLMISRTPEVTCVVVDVSHEDPEVKFNWYVDGVEVHNAKTKPREEQYNSTYRVVSVLTVLHQDWLNGKEYKCKVSNKALPAPIEKTISKAKGQPREPQVYTLPPSREEMTKNQVSLTCLVKGFYPSDIAVEWESNGQPENNYKTTPPVLDSDGSFFLYSKLTVDKSRWQQGNVFSCSVMHEALHNHYTQKSLSLSPGGGSGGSEVQLLESGGGLVQPGGSLRLSCAASGFTFSNYAMSWFRQPPETGLKWVSSIDASGGDTYYADSVKGRFTISRDNSKNTLYLQMNSLRAEDTAVYYCAKEGSHGTDDSHYDVDVWGQGTTVTVSS
notes: PD-L1x4-1BB IgG-VH: PR000265 + VH of PR004469 at heavy-chain C-terminus
B4: the binding result in assay [2] and in assay [1] was “binds” each time.

B5: PR003550 (bispecific antibody, human IgG1, kappa, L234A L235A)
light: DIQMTQSPSTLSASVGDRVTVTCRASQSIYIWLAWYQQKPGKAPNLLIYKASSLETGVPSRFSGSGSGTEFTLTISSLQPDDFATYYCQQYYGSSRTFGQGTKVEIKRTVAAPSVFIFPPSDEQLKSGTASVVCLLNNFYPREAKVQWKVDNALQSGNSQESVTEQDSKDSTYSLSSTLTLSKADYEKHKVYACEVTHQGLSSPVTKSFNRGEC
heavy: EVQLVESGGGLVQPGGSLRLSCAASGFTFSSYWMSWVRQAPGKGLEWVANIKQEGSEKYYVDSVKGRFTISRDNAKNSLYLQMNSLRAEDTAVYYCARDRAVAGAFDIWGQGTMVTVSSASTKGPSVFPLAPSSKSTSGGTAALGCLVKDYFPEPVTVSWNSGALTSGVHTFPAVLQSSGLYSLSSVVTVPSSSLGTQTYICNVNHKPSNTKVDKKVEPKSCDKTHTCPPCPAPEAAGGPSVFLFPPKPKDTLMISRTPEVTCVVVDVSHEDPEVKFNWYVDGVEVHNAKTKPREEQYNSTYRVVSVLTVLHQDWLNGKEYKCKVSNKALGAPIEKTISKAKGQPREPQVYTLPPSREEMTKNQVSLTCLVKGFYPSDIAVEWESNGQPENNYKTTPPVLDSDGSFFLYSKLTVDKSRWQQGNVFSCSVMHEALHNHYTQKSLSLSPGEPKSSDKTHTPPPPPRTEVQLVESGGGVVQPGGSLRLSCAASGFTFSNYAMTWVRQAPEKGLEWVSSISGSGVSTYYADSVKGRFTISRDNSKNTLYLQMTRLTAEDTAVYFCAKEGSSETDDHYYNVDVWGQGTTVTVSS
notes: PD-L1x4-1BB IgG-VH: PR000265 + VH of PR001760 at heavy-chain C-terminus
Take B5: the binding result in assay [1] was “binds”.

B6: PR007132 (bispecific antibody, human IgG1, kappa)
light: DIQMTQSPSTLSASVGDRVTVTCRASQSIYIWLAWYQQKPGKAPNLLIYKASSLETGVPSRFSGSGSGTEFTLTISSLQPDDFATYYCQQYYGSSRTFGQGTKVEIKRTVAAPSVFIFPPSDEQLKSGTASVVCLLNNFYPREAKVQWKVDNALQSGNSQESVTEQDSKDSTYSLSSTLTLSKADYEKHKVYACEVTHQGLSSPVTKSFNRGEC
heavy: EVQLVESGGGLVQPGGSLRLSCAASGFTFSSYWMSWVRQAPGKGLEWVANIKQEGSEKYYVDSVKGRFTISRDNAKNSLYLQMNSLRAEDTAVYYCARDRAVAGAFDIWGQGTMVTVSSASTKGPSVFPLAPSSKSTSGGTAALGCLVKDYFPEPVTVSWNSGALTSGVHTFPAVLQSSGLYSLSSVVTVPSSSLGTQTYICNVNHKPSNTKVDKKVEPKSCDKTHTCPPCPAPEAAGAPSVFLFPPKPKDTLMISRTPEVTCVVVDVSHEDPEVKFNWYVDGVEVHNAKTKPREEQYNSTYRVVSVLTVLHQDWLNGKEYKCKVSNKALPAPIEKTISKAKGQPREPQVYTLPPSREEMTKNQVSLTCLVKGFYPSDIAVEWESNGQPENNYKTTPPVLDSDGSFFLYSKLTVDKSRWQQGNVFSCSVMHEALHNHYTQKSLSLSPGGGSGGSEVQLVESGGGLVKPGGSLRLSCAASGFTFSDYYMSWIRQAPGKGLEWVSYISSSGSTIYYADSVKGRFTISRDNAKNSLYLQMNSLRAEDTAVYYCARVKPVAGTWDWFDPWGQGTPVTVSS
notes: PD-L1x4-1BB IgG-VH: PR000265 + VH of PR007286 at heavy-chain C-terminus
On to B6, for which the binding result in assay [2] and in assay [1] was “binds” each time.

B7: PR003551 (bispecific antibody, human IgG1, kappa, L234A L235A)
light: DIQMTQSPSTLSASVGDRVTVTCRASQSIYIWLAWYQQKPGKAPNLLIYKASSLETGVPSRFSGSGSGTEFTLTISSLQPDDFATYYCQQYYGSSRTFGQGTKVEIKRTVAAPSVFIFPPSDEQLKSGTASVVCLLNNFYPREAKVQWKVDNALQSGNSQESVTEQDSKDSTYSLSSTLTLSKADYEKHKVYACEVTHQGLSSPVTKSFNRGEC
heavy: EVQLVESGGGLVQPGGSLRLSCAASGFTFSSYWMSWVRQAPGKGLEWVANIKQEGSEKYYVDSVKGRFTISRDNAKNSLYLQMNSLRAEDTAVYYCARDRAVAGAFDIWGQGTMVTVSSASTKGPSVFPLAPSSKSTSGGTAALGCLVKDYFPEPVTVSWNSGALTSGVHTFPAVLQSSGLYSLSSVVTVPSSSLGTQTYICNVNHKPSNTKVDKKVEPKSCDKTHTCPPCPAPEAAGGPSVFLFPPKPKDTLMISRTPEVTCVVVDVSHEDPEVKFNWYVDGVEVHNAKTKPREEQYNSTYRVVSVLTVLHQDWLNGKEYKCKVSNKALGAPIEKTISKAKGQPREPQVYTLPPSREEMTKNQVSLTCLVKGFYPSDIAVEWESNGQPENNYKTTPPVLDSDGSFFLYSKLTVDKSRWQQGNVFSCSVMHEALHNHYTQKSLSLSPGEPKSSDKTHTPPPPPRTEVQLLESGGGLVQPGGSLRLSCAASGFIFSNFAMTWVRQPPEKGLKWVSSINGSGFNTYYTDSVKGRFTISRDNSRNTLYLQMNRLTAEDTAVYFCAKEGSSETDDHYYNVDVWGQGTTVTVSS
notes: PD-L1x4-1BB IgG-VH: PR000265 + VH of PR001836 at heavy-chain C-terminus
For B7, the binding result in assay [2] and in assay [1] was “binds” each time.
